{"source": "patent US8017326B2", "about": "“Methods of modulating cell death based on the Bit-1/AES regulatory pathway” (Sanford-Burnham Medical Research Institute, priority 2002, dated 2011)", "molecules": {"B1": {"name": "AES: human AES, 197 residue Groucho/TLE family protein (SEQ ID NO:6) that associates with Bit1 (protein, listed as Homo sapiens)", "chain": "MMFPQSRHSGSSHLPQQLKFTTSDSCDRIKDEFQLLQAQYHSLKLECDKLASEKSEMQRHYVMYYEMSYGLNIEMHKQAEIVKRLNGICAQVLPYLSQEHQQQVLGAIERAKQVTAPELNSIIRQQLQAHQLSQLQALALPLTPLPVGLQPPSLPAVSAGTGLLSLSALGSQAHLSKEDKNGHDGDTHQEDDGEKSD"}, "B2": {"name": "vitronectin: extracellular matrix protein coated on culture dishes (SIGMA) (protein, UniProt P04004 20-478, looked up)", "Vitronectin": "DQESCKGRCTEGFNVDKKCQCDELCSYYQSCCTDYTAECKPQVTRGDVFTMPEDEYTVYDDGEEKNNATVHEQVGGPSLTSDLQAQSKGNPEQTPVLKPEEEAPAPEVGASKPEGIDSRPETLHPGRPQPPAEEELCSGKPFDAFTDLKNGSLFAFRGQYCYELDEKAVRPGYPKLIRDVWGIEGPIDAAFTRINCQGKTYLFKGSQYWRFEDGVLDPDYPRNISDGFDGIPDNVDAALALPAHSYSGRERVYFFKGKQYWEYQFQHQPSQEECEGSSLSAVFEHFAMMQRDSWEDIFELLFWGRTSAGTRQPQFISRDWHGVPGQVDAAMAGRIYISGMAPRPSLAKKQRFRHRNRKGYRSQRGHSRGRNQNSRRPSRATWLSLFSSEESNLGANNYDDYRMDWLVPATCEPIQSVFFFSGDKYYRVNLRTRRVDTVDPPYPRSIAQYWLGCPAPGHL"}, "B3": {"name": "p35: caspase inhibitor protein, transfected expression construct (protein, UniProt P08160 1-299, looked up)", "Early 35 kDa protein": "MCVIFPVEIDVSQTIIRDCQVDKQTRELVYINKIMNTQLTKPVLMMFNISGPIRSVTRKNNNLRDRIKSKVDEQFDQLERDYSDQMDGFHDSIKYFKDEHYSVSCQNGSVLKSKFAKILKSHDYTDKKSIEAYEKYCLPKLVDERNDYYVAVCVLKPGFENGSNQVLSFEYNPIGNKVIVPFAHEINDTGLYEYDVVAYVDSVQFDGEQFEEFVQSLILPSSFKNSEKVLYYNEASKNKSMIYKALEFTTESSWGKSEKYNWKIFCNGFIYDKKSKVLYVKLHNVTSALNKNVILNTIK"}, "B4": {"name": "TLE2: TLE family protein (protein, UniProt Q04725 1-743, looked up)", "Transducin-like enhancer …": "MYPQGRHPTPLQSGQPFKFSILEICDRIKEEFQFLQAQYHSLKLECEKLASEKTEMQRHYVMYYEMSYGLNIEMHKQAEIVKRLSGICAQIIPFLTQEHQQQVLQAVERAKQVTVGELNSLIGQQLQPLSHHAPPVPLTPRPAGLVGGSATGLLALSGALAAQAQLAAAVKEDRAGVEAEGSRVERAPSRSASPSPPESLVEEERPSGPGGGGKQRADEKEPSGPYESDEDKSDYNLVVDEDQPSEPPSPATTPCGKVPICIPARRDLVDSPASLASSLGSPLPRAKELILNDLPASTPASKSCDSSPPQDASTPGPSSASHLCQLAAKPAPSTDSVALRSPLTLSSPFTTSFSLGSHSTLNGDLSVPSSYVSLHLSPQVSSSVVYGRSPVMAFESHPHLRGSSVSSSLPSIPGGKPAYSFHVSADGQMQPVPFPSDALVGAGIPRHARQLHTLAHGEVVCAVTISGSTQHVYTGGKGCVKVWDVGQPGAKTPVAQLDCLNRDNYIRSCKLLPDGRSLIVGGEASTLSIWDLAAPTPRIKAELTSSAPACYALAVSPDAKVCFSCCSDGNIVVWDLQNQTMVRQFQGHTDGASCIDISDYGTRLWTGGLDNTVRCWDLREGRQLQQHDFSSQIFSLGHCPNQDWLAVGMESSNVEILHVRKPEKYQLHLHESCVLSLKFASCGRWFVSTGKDNLLNAWRTPYGASIFQSKESSSVLSCDISRNNKYIVTGSGDKKATVYEVVY"}, "B5": {"name": "AES residues 106-197: AES deletion mutant, amino-terminal fusion with GFP (protein, UniProt Q08117 106-197, looked up, fragment)", "chain": "GAIERAKQVTAPELNSIIRQQLQAHQLSQLQALALPLTPLPVGLQPPSLPAVSAGTGLLSLSALGSQAHLSKEDKNGHDGDTHQEDDGEKSD", "modifications": "GFP fusion", "notes": "AES deletion mutant, amino-terminal fusion with GFP"}}, "key": {"Bcl-2 promoter": {"test_system": "Bcl-2 promoter", "assay": "Bcl-2 promoter reporter assay in CHO cells", "format": "cell-based, Chinese hamster", "conditions": "CHO cells, 1 μg Bcl-2-luciferase reporter construct, 24 hours in culture", "from_the_text": "The entire CGI-147 open reading frame encodes a 27-kDa protein with no sequence similarity to other proteins. […] To denote this inhibitory transcriptional activity, the Clone-3 gene was denoted Bit1 for Bcl-2 inhibitor of transcription."}, "CHO cells [1]": {"test_system": "CHO cells", "assay": "Percentage of GFP-positive detached cells after transfection", "format": "cell-based, Chinese hamster", "conditions": "48 hours after transfection, GFP fusion construct", "description": "(§1) To determine if Bit1 and AES are both required for apoptosis induction, HEK 293T, HOP92, and CHO cells were transfected with a GFP (vector), GFP-Bit1, or GFP-AES fusion protein constructs, as indicated in FIG. 3E. The cells were examined 48 hours (HEK 293T and CHO) or 72 hours (HOP92) after transfection, and the percentage of GFP-positive detached cells was measured."}, "CHO cells [2]": {"test_system": "CHO cells", "assay": "Scoring of rounded-up cells expressing GFP as dead cells", "format": "cell-based, Chinese hamster", "description": "AES was assayed for pro-apoptotic activity in CHO cells transfected with a green fluorescent protein (GFP)-AES fusion protein. […] However, in HEK 293 cells, which express no detectable Bit1 by immunohistochemistry or Northern analysis, transfection of AES alone was not apoptotic.\nFurthermore, apoptosis was measured in cells transfected with Bit1 (5 μg DNA), AES (5 μg DNA) or both (5 μg each). Rounded up cells expressing GFP were scored as dead cells 24 and 48 hours after the transfection.\nTo determine if TLE1 suppresses apoptosis induced by AES in CHO cells, cells were transfected with GFP-AES or GFP-TLE1 alone, or both. Cell death was assessed by scoring rounded-up cells expressing GFP 48 hours later."}, "HEK 293T cells": {"test_system": "HEK 293T cells", "assay": "Percentage of GFP-positive detached cells after transfection", "format": "cell-based, human", "conditions": "48 hours after transfection, GFP fusion construct", "description": "as §1"}, "Thymosin β-4": {"test_system": "Thymosin β-4", "assay": "Northern blot of ecdysone-induced Bit1 or AES cell lines", "format": "cell-based, human", "conditions": "ecdysone-inducible ECR-293 cell line expressing Bit1 or AES", "description": "(§2) To determine whether the Bit1/AES pathway can regulate the transcription of genes other than Bcl-2, two stable cell lines were established expressing either-Bit1 or AES under control of an ecdysone-inducible promoter. To detect genes regulated by Bit1 or AES, probes were prepared from the ecdysone-induced cell lines and used to screen microarrays representing 19,000 human cDNAs. […] Down-regulation of HSP-70 and thymosin 4 in cells induced to express Bit1 or AES was confirmed by Northern blot analysis (see FIG. 7).\n(§3) Northern blot analysis was performed as follows. Total RNA (10 μg) was electrophoresed on a 1% agarose-formaldehyde gel and transferred to nitrocellulose filters. The filters were hybridized using the same RNA probes as in the microarray experiments in Rapid-hyb buffer and washed according to the manufacturer's instructions (Amersham-Pharmacia)."}, "[3]": {"test_system": "Heat Shock 70 kD protein 1A", "assay": "Northern blot of ecdysone-induced Bit1 or AES cell lines", "format": "cell-based, human", "conditions": "ecdysone-inducible ECR-293 cell line expressing Bit1 or AES", "description": "as §2, §3"}, "19,000 human cDNAs": {"test_system": "19,000 human cDNAs", "assay": "cDNA microarray analysis of ecdysone-induced Bit1 or AES cell lines", "format": "cell-based", "description": "as §2\ncDNA microarray analysis was performed as follows. Total RNA was purified 48 hours after treatment with 10 μM ponasterone A (Invitrogen; San Diego, Calif.) from the ecdysone inducible cell line ECR-293-Bit1 or ECR-293-AES according to the manufacturer's instructions (Qiagen; Valencia, Calif.). cDNA probes were generated and hybridized with a microarray containing 19,000 human cDNAs from Microarray Centre at University Health Network, Ontario Cancer institute. cDNAs were labeled with fluorescent dyes (Cy3 or Cy5) using reverse transcription. Arrays were processed and hybridized essentially as described in Iyer et al., Science 283:83-87 (1999). After hybridization, arrays were scanned to measure fluorescence using a ScanArray 4000 scanner (Perkin Elmer; Meriden, Conn.). Raw data files generated by scanner software were imported into ImaGene and Gene Spring for analysis. Experiments were performed in duplicate using color reversals."}, "[4]": {"test_system": "Bit1-induced apoptosis in HEK 293 cells", "assay": "Extracellular matrix proteins and Bit1-induced apoptosis, trypan blue staining", "format": "cell-based, human", "conditions": "HEK 293 cells plated onto coated dishes, 10 μg Bit1 plasmid, 48 hours", "description": "Several extracellular matrix proteins were assayed for the ability to modulate Bit1-mediated apoptosis. Cells were plated onto bacterial culture dishes pre-coated overnight with fibronectin (Chemicon; Temecula; CA), vitronectin (SIGMA; St. Louis, Mo.) or type I collagen (SIGMA), and transfected and assayed for apoptosis as described above.\nTo analyze integrin involvement in protecting attached cells against the pro-apoptotic effect of Bit1, Bit1 cell lines expressing either α5β1 or αvβ1 as the main fibronectin receptor were compared. The two cell lines attach equally well to fibronectin but, like cytoplasmically truncated α5β1, αvβ1 fails to protect cells against apoptosis induced by serum deprivation (Zhang et al., supra, 1995; and Matter and Ruoslahti, supra, 2001).\nExperiments with extracellular matrix proteins were performed as follows. Cells were plated onto uncoated tissue culture plates or onto bacterial culture plates coated with fibronectin, vitronectin or collagen, and allowed to attach in the presence of serum. The attachment was equal on all of these surfaces. The cells were then transfected with 10 μg of Bit1 expression plasmid; where indicated, cells were treated with a control IgG of unrelated specificity or monoclonal anti-human α5 antibody (Chemicon), both at 10 μg/ml. Cell death was measured by trypan blue staining 48 hours after the transfection."}, "[5]": {"test_system": "Bit1-induced apoptosis in HEK 293 cells", "assay": "Co-transfection of Bit1 with anti-apoptotic proteins", "format": "cell-based, human", "conditions": "HEK 293 cells co-transfected with Bit1", "description": "Co-transfections were performed with cells plated on non-coated dishes transfected with 5 μg Bit1 plasmid alone or together with 10 μg dominant negative (DN) R-Ras, or activated H-Ras plasmid (Zou et al., Proc. Natl. Acad. Sci. USA 96: 13813-13818 (1999)). […] Expression of the transfected proteins was confirmed by immunoblotting. Apoptosis was assayed as described above."}, "CHO cells [6]": {"test_system": "CHO cells", "assay": "Deletion analysis, cell death by trypan blue exclusion", "format": "cell-based, Chinese hamster", "conditions": "10 μg construct, trypan blue exclusion 48 hours after transfection", "description": "The amino-terminal portion of Bit1 (residues 16-40) is hydrophobic and can serve as a transmembrane domain or signal peptide sequence. When the hydrophobicity of this portion was reduced by substitution of glycine 22 and glycine 38 by serine, Bit1 apoptotic activity was reduced.\nDeletion analysis was performed as follows. The indicated deletion mutants were cloned into vector pEGFP-C1, and 10 μg of each plasmid construct transfected into CHO cells. Cell death was measured by trypan blue exclusion 48 hours after transfection.\nTo delineate the pro-apoptotic domain of AES, a series of AES deletion mutants was prepared as amino-terminal fusions with GFP in vector pEGFP-C1. Various AES deletion constructs (10 μg) were transfected into CHO cells, and cell death measured by trypan blue exclusion 48 hours after transfection."}}, "note": "“Also recorded” adds a separate entry of the source.", "data": [{"molecule": "B1", "values": [{"measurement": "Bcl-2 promoter activity", "setting": "Bcl-2 promoter", "value": "down-regulate"}, {"measurement": "apoptosis induction in CHO cells", "setting": "CHO cells [1]", "value": "induced apoptosis"}, {"measurement": "time within which CHO cells receiving GFP-AES died", "setting": "CHO cells [2]; GFP-AES fusion protein", "value": "≤ 48", "unit": "h"}, {"measurement": "effect on viability of 293T cells", "setting": "HEK 293T cells", "value": "no effect on the viability"}, {"measurement": "Northern result, suppression of Thymosin β-4", "setting": "Thymosin β-4", "value": 4, "unit": "fold"}, {"measurement": "Northern result, suppression of Heat Shock 70 kD protein 1A", "setting": "[3]", "value": 3, "unit": "fold"}, {"measurement": "Bcl-2 expression", "setting": "19,000 human cDNAs; Bit1 and AES stable cell lines", "value": "not measurably altered"}, {"measurement": "Microarray result: gene induced", "setting": "19,000 human cDNAs; at least a two-fold induction, value is the gene", "value": "DNA replication licensing factor; also recorded: NIK-related kinase 17; also recorded: CMP-N-acetylneuraminic acid"}, {"measurement": "Microarray result: gene suppressed", "setting": "19,000 human cDNAs; at least a two-fold suppression, value is the gene", "value": "Heat shock 70 KD protein 1A; also recorded: Thymosin β-4; also recorded: KCNAB2; also recorded: FLJ10386; also recorded: NET-5; also recorded: SRY-related HMG-box gene 4"}]}, {"molecule": "B2", "values": [{"measurement": "protection from Bit1-induced apoptosis", "setting": "[4]", "value": "largely protected"}]}, {"molecule": "B3", "values": [{"measurement": "effect on apoptosis induced by Bit1", "setting": "[5]", "value": "little or no effect"}]}, {"molecule": "B4", "values": [{"measurement": "effect on apoptosis induced by AES", "setting": "CHO cells [2]; rounded-up GFP cells scored 48 hours later", "value": "modestly suppresses"}]}, {"molecule": "B5", "values": [{"measurement": "pro-apoptotic activity of deletion constructs", "setting": "CHO cells [6]", "value": "no apoptotic activity"}]}]}
